Experimental data: the RNAGym collection of RNA variant scans (doi:10.7554/elife.80360)

B1: HDV Ribozyme (parent)
chain: GGCCGGCAUGGUCCCAGCCUCCUCGCUGGCGCCGGCUGGGCAACAUUCCGAGGGGACCGUCCCCUCGGUAAUGGCGAAUGGGACCCA

Variants of: B1
Assay: self-cleavage, relative activity (ratio to wild type); higher = more cleavage; co-transcriptional

| Variant | self-cleavage |
| --- | --- |
| G35C U72A | 0 |
| G35A A78G | 0.138 |
| G35A A78U | 0.253 |
| G34U G53U | 0.223 |
| G34U C48U | 0.112 |
| G34U C48G | 0.151 |
| G34U C48A | 0.251 |
| G34A G82C | 0.261 |
| G35A A71U | 0.389 |
| G35A A71C | 0.125 |
| G34C C64G | 0.306 |
| G34C C64U | 0.271 |
| G34U U72A | 0.151 |
| G34U U72C | 0.164 |
| G35A C64A | 0.379 |
| G34U C63A | 0.164 |
| G34U C63U | 0.166 |
| G34U C58A | 0.111 |
| G34U C58G | 0.0811 |
| G35C C84U | 0.256 |
| G35C G68C | 0.356 |
| G34C A43U | 0 |
| G34C A43C | 0.364 |
| G34C A70G | 0.0898 |

| Variant | self-cleavage |
| --- | --- |
| G34C U47C | 0.185 |
| G35A C44A | 0 |
| G35A C44G | 0.0639 |
| G35A C44U | 0.188 |
| G35C C49U | 0.203 |
| G35C C49G | 0.0449 |
| G34U A70U | 0.182 |
| G34U A70G | 0.0997 |
| G34U A70C | 0.17 |
| G34C C75A | 0.131 |
| G34C C75G | 0.131 |
| G34C C75U | 0.0405 |
| G35A C85G | 0.643 |
| G35A C85A | 0.644 |
| G34C G40U | 0.151 |
| G34C C58G | 0.287 |
| G34U G81U | 0.18 |
| G35A U37A | 0.0898 |
| G35A U37G | 0.163 |
| G35A U37C | 0.396 |
| G34C C49G | 0.264 |
| G35A C84U | 0.464 |
| G35A C84A | 0.62 |
| G34A U69A | 0.166 |

| Variant | self-cleavage |
| --- | --- |
| G34A U69G | 0.306 |
| G34C G59U | 0.0415 |
| G34C G59C | 0.0811 |
| G34A U37G | 0.219 |
| G35C C48U | 0.271 |
| G35C C48G | 0.485 |
| G35A G50A | 0.692 |
| G35A G50C | 0.346 |
| G35C C86U | 0.415 |
| G35A A77U | 0.253 |
| G35A A77C | 0.131 |
| G35A U46A | 0.332 |
| G34C G53U | 0.163 |
| G35C G81A | 0.0332 |
| G35C G81C | 0.19 |
| G35C C66A | 0.253 |
| G35C C66U | 0.229 |
| G35A G81C | 0.188 |
| G35A G81U | 0.105 |
| G34C C86G | 0.19 |
| G34C C86U | 0.237 |
| G34C C48G | 0.162 |
| G34U A87U | 0.141 |
| G34U A87C | 0.119 |

| Variant | self-cleavage |
| --- | --- |
| G34U A87G | 0.122 |
| G34C G38U | 0.0378 |
| G34C G38C | 0.122 |
| G34C G38A | 0.0959 |
| G34C A51G | 0.346 |
| G34C A51C | 0.107 |
| G34C A51U | 0.141 |
| G35A C49A | 0.591 |
| G35A C49U | 0.596 |
| G35C G53U | 0.204 |
| G34C G68A | 0.0692 |
| G35A G54U | 0.743 |
| G34U A42C | 0.0963 |
| G34U A42U | 0.252 |
| G34U C64G | 0.277 |
| G34U C64A | 0.268 |
| G34U C75G | 0.214 |
| G34U C75U | 0.109 |
| G34U C75A | 0.107 |
| G35A G40C | 0.163 |
| G35A C63U | 0.91 |
| G35A C63A | 0.332 |
| G35C C85U | 0.308 |
| G35A C86G | 0.739 |

| Variant | self-cleavage |
| --- | --- |
| G34U G40A | 0.0542 |
| G34U G40C | 0.0415 |
| G34U C61U | 0.208 |
| G34U C61G | 0.378 |
| G35C A70U | 0.138 |
| G35C A70C | 0.158 |
| G34C G80U | 0.203 |
| G35A A87G | 0.473 |
| G35A A87C | 0.444 |
| G34U U65C | 0.197 |
| G34U U65G | 0.146 |
| G34U A77G | 0.086 |
| G34U A77C | 0.0678 |
| G35C A71C | 0 |
| G34C C44G | 0.0332 |
| G35C C44A | 0.0573 |
| G35C C44U | 0.0536 |
| G35A C61G | 0.465 |
| G35A C61A | 0.635 |
| G34C C62A | 0.162 |
| G34C C62U | 0.262 |
| G34C U60G | 0.0978 |
| G34C U60C | 0.244 |
| G35C G40C | 0.185 |

| Variant | self-cleavage |
| --- | --- |
| G34A U79G | 0.0875 |
| G34A U79A | 0.0755 |
| G34A U79C | 0.0773 |
| G34U A45G | 0.0652 |
| G34U A45C | 0.117 |
| G35C A87G | 0.205 |
| G35C A87C | 0.0866 |
| G35C U46C | 0.185 |
| G35C C62A | 0.277 |
| G34U G67C | 0.22 |
| G34U G67U | 0.231 |
| G34U G67A | 0.115 |
| G34C A77C | 0.17 |
| G34C A77G | 0.161 |
| G34C A77U | 0.125 |
| G34U A83G | 0.169 |
| G35C G54U | 0.326 |
| G35C G54A | 0.151 |
| G35A C57U | 0.686 |
| G35A G73A | 0.372 |
| G35A G73C | 0.138 |
| G35A G73U | 0.223 |
| G34C U37A | 0.297 |
| G34U G68U | 0.0966 |

| Variant | self-cleavage |
| --- | --- |
| G34U G68C | 0.322 |
| G35C C41U | 0.0978 |
| G35A C36G | 0.35 |
| G35A C36U | 0.0817 |
| G34C G54A | 0.166 |
| G35A G39A | 0.219 |
| G35A G39U | 0.128 |
| G34C C41A | 0.233 |
| G34C C41U | 0.0378 |
| G35C G73A | 0.0723 |
| G35C G73U | 0.181 |
| G35C C36A | 0.119 |
| G35C C36U | 0.108 |
| G34U A56C | 0.219 |
| G34A U60G | 0.237 |
| G34C C36U | 0.0332 |
| G34U G50A | 0.312 |
| G34U G50C | 0.0906 |
| G34U G74C | 0.138 |
| G35A A56U | 0.72 |
| G35C U37G | 0.0504 |
| G35C U37A | 0 |
| G34C C63G | 0.0378 |
